We go through eight molecules from patent publication US20090311283A1.

The target in experiment [1] is HLA-A*6802 (Human). The settings on record: remark: other sources report otherwise.
Experiment [2] concerns the target T1, HLA-DR1 (DRB1*0101) (human).
T1 chain 1: not shown
T1 chain 2: not shown
Kind of experiment: competition with 125I probe peptide for purified HLA-DR, gel filtration. A general note: SEC sorts molecules by how far they enter the pores of the column.

In experiment [3] the target is T2, HLA-DR4w4 (DRB1*0401) (human).
T2 chain 1: not shown
T2 chain 2: not shown
The description is as above.

Experiment [4] addresses T3, HLA-DR5w11 (DRB1*1101) (human).
T3 chain 1: not shown
T3 chain 2: not shown
The description is as above.

Experiment [5] has as its target HLA-DR5w12 (DRB1*1201) (human). Described as above.
Experiment [6] deals with T4, HLA-DR6w19 (DRB1*1302) (human).
T4 chain 1: not shown
T4 chain 2: not shown
The description is as above.

Experiment [7] concerns the target T5, HLA-DR7 (DRB1*0701) (human).
T5 chain 1: not shown
T5 chain 2: not shown
The experiment is described as above.

Experiment [8] concerns the target T6, HLA-DR8w2 (DRB1*0802) (human).
T6 chain 1: not shown
T6 chain 2: not shown
The description is as above.

For experiment [9], the target named is HLA-DR9 (DRB1*0901) (human). The description is as above.
Experiment [10] addresses T7, HLA-DRw53 (DRB4*0101) (human).
T7 chain 1: not shown
T7 chain 2: not shown
Described as above.

Experiment [11] deals with T1, HLA-DR1 (DRB1*0101) (human). Kind of experiment: inhibition of 125I probe peptide binding to purified HLA-DR, gel filtration. The settings on record: remark: other sources report otherwise.
In experiment [12] the target is T3, HLA-DR5w11 (DRB1*1101) (human). Described as above. Conditions: remark: other sources report otherwise.
The next experiment deals with HLA-B*3501 (human). Kind of experiment: competition vs 125I probe peptide, purified HLA, gel filtration. Conditions: remark: other sources report otherwise.
Another experiment addresses HLA-B*5401 (human). The description is as above. Conditions: remark: other sources report otherwise.
The target of the next experiment is HLA-A*0201 (Human). Conditions: remark: other sources report otherwise.
A further experiment addresses HLA-A*0203 (Human). The settings on record: remark: other sources report otherwise.
For experiment [13], the target named is HLA-A*6802 (Human). Conditions: remark: other sources report otherwise. This is another data set of the same source.
The target of a further experiment is HLA-A*03 (human). Kind of experiment: competitive inhibition of 125I-labelled probe peptide binding to purified HLA, gel filtration. Conditions: remark: other sources report otherwise.
The target of the next experiment is HLA-B*0702 (human). Kind of experiment: competition vs 125I probe peptide, purified HLA, gel filtration. Conditions: remark: other sources report otherwise.
The target in the next experiment is HLA-A*6801 (human). Put plainly: inhibition of 125I-labelled probe peptide binding to purified HLA, gel filtration. The settings on record: remark: other sources report otherwise.

By IC50 is commonly meant the midpoint of a concentration-inhibition curve. Turning to ILSTLPETTV (modifications not checked) [peptide 1069.14], the IC50 with HLA-A*6802 (Human) [1] came to 5.97 µM.

With FVQWFVGLSPTVWLS (modifications not checked) [HBV ENV 342 peptide …], the relative binding (IC50 of standard peptide / IC50 of test peptide) in [2] came to 0.47; in [3], 0.013; in experiment [4], 0.0072; in experiment [5], 0.0021; in experiment [6], 0.019; in experiment [7], 0.069. Also, the values for the relative binding (IC50 of standard peptide / IC50 of test peptide) in experiment [8], in experiment [9] and in [10] were 0.018, 0.041 and 0.0044, respectively.

With CSVVRRAFPHCLAFS (modifications not checked) [HBV POL peptide …], the binding affinity ratio (relative to standard peptide) in experiment [11] amounted to 0.1; in [12], 0.0008.

As to FPDHQLDPA (modifications not checked) [Peptide 16.0006 (HBV ENV 25, …)], the IC50 in the experiment with HLA-B*3501 (human) is 8 µM; with HLA-B*5401 (human) it was 0.012 µM.

Turning to FTFSPTYKA (modifications not checked) [HBV POL 656 …], the binding affinity ratio (IC50 of standard peptide / IC50 of test peptide) with HLA-A*0201 (Human) is 0.0056; in the experiment with HLA-A*0203 (Human) it was 0.0031; in the experiment with HLA-A*6802 (Human) [13], 7.3.

Turning to ILRGTSFVY (modifications not checked) [HBV POL 771 peptide 1.0205 (…)], the IC50 with HLA-A*03 (human) was found to be 0.25 µM.

Take VPSALNPA (modifications not checked) [Peptide 19.0016 (HBV POL 769, VPSALNPA)]: the IC50 in the experiment with HLA-B*0702 (human) was determined as 3 µM; with HLA-B*5401 (human) it was 0.01 µM.

In turn, VSIPWTHK (modifications not checked) [HBV POL 50 peptide 26.0024 (VSIPWTHK)] yielded an IC50 with HLA-A*6801 (human) of 20 µM.
